{
  "source": "patent US20250179550A1",
  "about": "“Methods to imbue polymeric materials with new structures and functions” (The Regents of the University of California, priority 2022, published 2025)",
  "key": {"[1]": {"tested_on": "MicD-F", "assay": "Reaction of protein substrates (mCherry and Rop variants) with MicD-F, LC-MS deconvoluted mass", "type": "biochemical, Microcystis aeruginosa", "conditions": "for cyclodehydration of mCherry variants to thiazoline (loss of water) / cyclodehydration of Rop variants to thiazoline: 50 mol % MicD-F; for cyclodehydration of mCherry variants to thiazoline (loss of water): 24 hours", "protocol": "Reactions of proteins with MicD-F were performed in the manner described above with minor modifications. Namely, the substrate stock was a 1 mM solution of protein in 20 mM HEPES, 150 mM NaCl, 1 mM TCEP, pH 7.4.\n(§1) Unprocessed reaction mixture (1 μL) was used for LC-MS analysis which was performed on an Agilent 1290 Infinity II HPLC connected to an Agilent 6530B QTOF AJS-ESI. The mobile phase for LC-MS was water and acetonitrile with 0.1% (v/v) formic acid and a flow rate of 0.4 mL/min. Each sample was injected onto a Poroshell 300SB-C8 column (2.1×75 mm, 5-Micron, room temperature, Agilent) using a linear gradient from 5 to 55% acetonitrile over 8 minutes after an initial hold at 5% acetonitrile for 2 minutes (0.4 mL/min). The following parameters were used during acquisition: Fragmentor voltage 225 V, gas temperature 300° C., gas flow 10 L/min, sheath gas temperature 350° C., sheath gas flow 11 L/min, nebulizer pressure 35 psi, skimmer voltage 65 V, Vcap 5000 V, 1 spectra/s. Intact protein masses were obtained via deconvolution using the Maximum Entropy algorithm in Mass Hunter Bioconfirm (V10, Agilent)."}, "[2]": {"assay": "Temperature stability of MicD-F", "type": "physicochemical"}, "[3]": {"assay": "Circular dichroism of Rop variants (wavelength scans and temperature melts)", "type": "physicochemical", "conditions": "CD at 222 nm; for TM (melting temperature): 20 μM, 10 mM phosphate, 100 mM NaCl, 150 μM TCEP, pH 7.0", "protocol": "RopN, RopM, and RopC were exchanged into CD buffer (10 mM phosphate, 100 mM NaCl, 150 μM TCEP, pH 7.0) using Amicon Ultra-0.5 mL centrifugal filters (MilliporeSigma, Burlington, MA) with a 3 kDa molecular weight cut-off according to the manufacturer's instructions and then diluted with the same buffer to a concentration of 20 μM. For CD analysis each Rop variant was transferred to a 1 mm quartz cuvette. Wavelength and temperature dependent CD spectra were collected with an AVIV Biomedical, Inc. (Lakewood, NJ) Circular Dichroism Spectrometer Model 410. For wavelength-dependent spectra, initial scans were performed from 200 to 300 nm at 25° C. in 2 nm increments with an averaging time of 5 seconds. For temperature melt experiments, the signal was monitored at 222 nm with an averaging time of 5 seconds. Temperature melts were performed from 5 to 90° C. in 1° C. increments with equilibration for 2 minutes before each measurement. Following the temperature melt the sample was returned to 25° C. and the wavelength-dependent CD spectra was measured once more to assess the reversibility of the melt. Raw data (mdeg) were converted to molar ellipticity ([Θ], in deg*cm^2*dmol^−1) by\nwhere M is the mean residual weight (116.00 g/mol for RopN, RopM, and RopC), L is the pathlength of the cuvette in centimeters, and C is the concentration of the sample in g/L.7 The melting temperature was determined by fitting the molar ellipticity as a function of temperature to a Boltzmann sigmoidal curve using GraphPad Prism (Version 7.04).\nCD analysis of RopC-U and RopC-Z was performed as described for RopN, RopM, and RopC with the following modifications. Temperature melts were performed from 5 to 90° C. in 2.5° C. increments. Before measuring the temperature melt for RopC-Z, the protein was refolded by performing an initial melt from 5 to 90° C. in 2.5° C. increments as described."}, "[4]": {"assay": "Analytical size-exclusion chromatography of Rop variants", "type": "physicochemical", "conditions": "50 μM", "protocol": "To assess the homogeneity of isolated Rop variants, a solution of each protein was prepared (250 μg at 50 μM) in running buffer (10 mM phosphate, 100 mM NaCl, 150 µM TCEP, pH 7.0). A Superdex® 75 Increase 10/300 GL column (stored and operated at 4° C.) was washed with 2 column volumes (CV) of degassed and sterile filtered MilliQ water. The column was then equilibrated in running buffer for 2 CV. Each sample (500 μL) was applied to a 500 μL sample loop. The sample loop was washed with 2 mL of running buffer at 0.8 mL/min to load the sample onto the column. The sample was then eluted from the column by flowing running buffer at 0.8 mL/min for 1.30 CV. To assess column performance, a gel filtration standard (Bio-Rad Laboratories, Hercules, CA, catalog number 151-1901) containing 670 kDa, 158 kDa, 44 kDa, 17 kDa, and 1.35 kDa standards was used according to the manufacturer's instructions."}, "[5]": {"tested_on": "MicD-F and ArtGox", "assay": "Reaction of protein substrates with MicD-F and ArtGox in tandem, LC-MS deconvoluted mass", "type": "biochemical, Microcystis aeruginosa; Arthrospira platensis", "conditions": "50 mol % MicD-F, 80 mol % ArtGox, 24 hours, pH 9.0, 37° C.", "protocol": "Reactions of proteins with MicD-F and ArtGox were performed in the manner described above with minor modifications. The substrate stock was a 1 mM solution of protein in 20 mM HEPES, 150 mM NaCl, 1 mM TCEP, pH 7.4. Reactions were carried out at either 25° C. or 37° C. as indicated.\nas §1"}},
  "data": [
    {"molecule": "mCherry174+ (protein, listed as Discosoma sp.) MDYKDDDDKMVSKGEEDNMAIIKEFMRFKVHMEGSVNGHEFEIEGEGEGRPYEGTQTAKLKVTKGGPLPFAWDILSPQFMYGSKAYVKHPADIPDYLKLSFPEGFKWERVMNFEDGGVVTVTQDSSLQDGEFIYKVKLRGTNFPSDGPVMQKKTMGWEASSERMYPEDGALKGEIKQRLKLKDMCAYDGGGHYDAEVKTTYKAKKPVQLPGAYNVNIKLDITSHNEDYTIVEQYERAEGRHSTGGMDELYKHHHHHH", "values": [
      {"measurement": "cyclodehydration of mCherry variants to thiazoline (loss of water)", "setting": "[1]; pH 9.0, 37° C.", "result": "no evidence of cyclodehydration"},
      {"measurement": "cyclodehydration of mCherry variants to thiazoline (loss of water)", "setting": "[1]; pH 9.0, 42° C.", "result": "no evidence of cyclodehydration"}
    ]},
    {"molecule": "mCherry192+ (protein, listed as Discosoma sp.) MDYKDDDDKMVSKGEEDNMAIIKEFMRFKVHMEGSVNGHEFEIEGEGEGRPYEGTQTAKLKVTKGGPLPFAWDILSPQFMYGSKAYVKHPADIPDYLKLSFPEGFKWERVMNFEDGGVVTVTQDSSLQDGEFIYKVKLRGTNFPSDGPVMQKKTMGWEASSERMYPEDGALKGEIKQRLKLKDGGHYDAEVKTTYKAKKPVMCAYDGQLPGAYNVNIKLDITSHNEDYTIVEQYERAEGRHSTGGMDELYKHHHHHH", "values": [
      {"measurement": "cyclodehydration of mCherry variants to thiazoline (loss of water)", "setting": "[1]; pH 9.0, 37° C.", "result": "no evidence of cyclodehydration"},
      {"measurement": "cyclodehydration of mCherry variants to thiazoline (loss of water)", "setting": "[1]; pH 9.0, 42° C.", "result": "no evidence of cyclodehydration"}
    ]},
    {"molecule": "MicD-F: constitutively activated cyclodehydratase, leader peptide fused to N-terminus of MicD, SEQ ID NO: 7 (protein, listed as Microcystis aeruginosa) MSHHHHHHDYDENLYFQGSRLTAGQLSSQLAELSEEALGDAGAGAGAGAGAKLMQSTPLLQIQPHFHVEVIEPKQVYLLGEQANYALTGQLYCQILPLLDGQHSREQIVEKLDGEVPSEYIDYVLDRLAEKGYLTEAAPELSSEVAAFWSELGIAPPVAAEALRQSVTLTPVGNISEVTVAALTTALRDIGISVQTPTEAGSPTALNVVLTDDYLQPELAKINKQALESQQTWLLVKPVGSVLWLGPVFVPGKTGCWDCLAHRLRGNREVEASVLQQKQAQQQRNGQSGSVIGCLPTARATLPSTLQTGLQFAATEIAKWIVKHHVKATAPGTVFFPTLDGKIITFNHTVIDLKSHVLVRRSQCPSCGDRQILHRQGFEPVKLVSRRKHFTHDGGHRAFTPEQTVQKYQHLVSPITGVVTELVRLTDPANPLVHTYKAGHAFGSATTLRGLRNTLKYKSSGKGKTDIQSRASGLCEAIERYSGIFQGDEPRKRATLAELGDLALHPESLLYFSNTQYANREELNAQGSAAAYRWIPNRFDVSQAIDWTPVWSLTEQKHKYVPTAFCYYGYPLPEEQRFCKADSNGNAAGNTLEEAILQGFLELVERDSIAMWWYNRIRRPAVDLSTFDEPYFVDLQQFYQQQNRELWVLDVTADLGIPAFAGFSRRTVGTSERISIGFGAHLDPTIAILRALTEVSQVGLELDKIPDDKLDGESKDWMLNVTVENHPWLAPDPSVPMKTASDYPKRWSDDIHTDVMNCVKTAQTAGLEVMVLDQTRPDIGLNVVKVIIPGMRTFWTRFGQGRLYDIPVKLGWLDAPLAEEELNQTNIPF", "values": [
      {"measurement": "highest temperature at which MicD-F remained stable", "setting": "[2]", "result": 42, "unit": "°C"}
    ]},
    {"molecule": "RopC: Rop variant with loop sequence GGGGMCAYDG, SEQ ID NO: 3 (protein, listed as Escherichia coli) MDYKDDDDKMTKQEKTALNMARFIRSQTLTLLEKLNELGGGGMCAYDGDEQADICESLHDHADELYRSCLARFGDDGENLHHHHHH", "values": [
      {"measurement": "unfolding behaviour in temperature melt", "setting": "[3]", "result": "melted cooperatively and reversibly"},
      {"measurement": "TM (melting temperature)", "setting": "[3]", "result": 28, "unit": "°C"},
      {"measurement": "migration / homogeneity on SEC", "setting": "[4]", "result": "discrete dimers"},
      {"measurement": "conversion to the thiazole-modified protein", "setting": "[5]", "result": "complete conversion"},
      {"measurement": "cyclodehydration of Rop variants to thiazoline", "setting": "[1]; pH 9.0, 37° C., 16 h", "result": "clean conversion"},
      {"measurement": "conversion of RopC into RopC-U", "setting": "[1]; up to 50 μM MicD-F, 16 h, 25° C.", "result": "minimal"}
    ]},
    {"molecule": "RopM: Rop variant with loop sequence GGMCAYDGGG, SEQ ID NO: 2 (protein, listed as Escherichia coli) MDYKDDDDKMTKQEKTALNMARFIRSQTLTLLEKLNELGGMCAYDGGGDEQADICESLHDHADELYRSCLARFGDDGENLHHHHHH", "values": [
      {"measurement": "unfolding behaviour in temperature melt", "setting": "[3]", "result": "melted cooperatively and reversibly"},
      {"measurement": "TM (melting temperature)", "setting": "[3]", "result": 32, "unit": "°C"},
      {"measurement": "migration / homogeneity on SEC", "setting": "[4]", "result": "discrete dimers"},
      {"measurement": "cyclodehydration of Rop variants to thiazoline", "setting": "[1]; pH 9.0, 37° C., 16 h", "result": "reacted partially"}
    ]},
    {"molecule": "RopN: Rop variant with loop sequence MCAYDGGGGG, SEQ ID NO: 1 (protein, listed as Escherichia coli) MDYKDDDDKMTKQEKTALNMARFIRSQTLTLLEKLNELMCAYDGGGGGDEQADICESLHDHADELYRSCLARFGDDGENLHHHHHH", "values": [
      {"measurement": "unfolding behaviour in temperature melt", "setting": "[3]", "result": "melted non-cooperatively"},
      {"measurement": "TM (melting temperature)", "setting": "[3]", "result": 43, "unit": "°C"},
      {"measurement": "migration / homogeneity on SEC", "setting": "[4]", "result": "heterogeneous mixture"},
      {"measurement": "cyclodehydration of Rop variants to thiazoline", "setting": "[1]; pH 9.0, 37° C., 16 h", "result": "unreactive"}
    ]}
  ]
}
